Assay results from article PMC9487752, “Novel mycoplasma nucleomodulin MbovP475 decreased cell viability by regulating expression of CRYAB and MCF2L2”.

Experiments:
Assay in all cases: Southwestern blot; no change vs WT; EMSA: LightShift kit binding buffer, 20 min, room temperature, 5% native PAGE; Southwestern: 2 ug protein on nitrocellulose renatured in TNED buffer, 20 pmol biotin DNA, 12 h, room temperature; SPR: Biacore, NTA chip (~100 RU protein), buffer not given
Settings in all cases: protein: recombinant; tags: His (pET-30a); label: 5'-C6-biotin (both oligos by primer name); blunt
rMbovP475-265NQ266 = target: T1, rMbovP475-265NQ266 (Mycoplasma bovis HB0801, UniProt A0A454AQS7 1-368, N265A;Q266A)
T1 sequence: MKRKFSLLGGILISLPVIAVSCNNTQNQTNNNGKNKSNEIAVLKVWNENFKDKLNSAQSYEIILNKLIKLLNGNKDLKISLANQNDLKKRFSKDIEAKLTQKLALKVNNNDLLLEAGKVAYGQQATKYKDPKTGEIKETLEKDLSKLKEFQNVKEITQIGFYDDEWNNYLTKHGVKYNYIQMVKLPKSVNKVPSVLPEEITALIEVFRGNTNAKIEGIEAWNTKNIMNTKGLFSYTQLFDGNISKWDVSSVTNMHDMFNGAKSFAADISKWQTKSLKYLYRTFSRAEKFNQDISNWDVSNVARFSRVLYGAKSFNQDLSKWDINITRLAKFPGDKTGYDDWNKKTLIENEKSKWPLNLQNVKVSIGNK

MbovP475∆DB3 = target: T2, MbovP475∆DB3 (Mycoplasma bovis HB0801, UniProt A0A454AQS7 1-338)
T2 sequence: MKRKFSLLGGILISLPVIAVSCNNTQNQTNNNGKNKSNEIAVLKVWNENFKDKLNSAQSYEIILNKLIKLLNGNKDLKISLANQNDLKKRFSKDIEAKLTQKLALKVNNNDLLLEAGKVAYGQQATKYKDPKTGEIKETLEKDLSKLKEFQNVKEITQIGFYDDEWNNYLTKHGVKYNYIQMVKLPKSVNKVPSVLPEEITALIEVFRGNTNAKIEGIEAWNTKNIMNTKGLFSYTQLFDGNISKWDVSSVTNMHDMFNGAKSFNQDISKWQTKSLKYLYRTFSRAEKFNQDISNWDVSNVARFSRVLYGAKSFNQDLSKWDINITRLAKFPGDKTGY

MbovP475∆DB2 = target: T3, MbovP475∆DB2 (Mycoplasma bovis HB0801, UniProt A0A454AQS7 1-298+333-368, internal_change)
T3 sequence: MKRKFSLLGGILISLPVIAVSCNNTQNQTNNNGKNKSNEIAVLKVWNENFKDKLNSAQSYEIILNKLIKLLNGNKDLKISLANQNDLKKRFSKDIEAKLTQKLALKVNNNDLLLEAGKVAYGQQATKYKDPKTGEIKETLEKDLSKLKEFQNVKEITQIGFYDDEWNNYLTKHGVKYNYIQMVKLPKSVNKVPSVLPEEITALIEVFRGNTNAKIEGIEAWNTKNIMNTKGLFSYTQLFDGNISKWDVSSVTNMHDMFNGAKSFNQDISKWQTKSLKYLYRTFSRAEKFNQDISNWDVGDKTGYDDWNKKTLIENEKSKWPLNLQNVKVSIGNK

Measured: binding result

B1: MCF2L2 promoter (+53 to +112) (dsDNA)
DNA 1: CAACTAACACTTTACGGGAGTGGGCACATCATTCCTGAATAAGGACACGCGCGTGCGCAC
DNA 2: GTGCGCACGCGCGTGTCCTTATTCAGGAATGATGTGCCCACTCCCGTAAAGTGTTAGTTG
binds: all assays above

B2: CRYAB promoter (+108 to +167) (dsDNA)
DNA 1: TCTCTTCCCAGCTTCTACTTCCCTGAGCCCCTTCTACCTTCGGCCGCCCTCATTTCTGCG
DNA 2: CGCAGAAATGAGGGCGGCCGAAGGTAGAAGGGGCTCAGGGAAGTAGAAGCTGGGAAGAGA
binds: all assays above
